Source: the Human Domainome abundance scans (Beltran et al. 2025)
± gives the uncertainty stated by the source.

B1: CD2-associated protein, residues 109 to 169; numbered along this chain, Q9Y5K6 (parent)
chain: KKRQCKVLFEYIPQNEDELELKVGDIIDINEEVEEGWWSGTLNNKLGLFPSNFVKELEVTD

Variants of: B1
Assay: abundance fitness (aPCA) (normalised: wild type 0, dead -1); higher = more abundant; growth selection in yeast, the domain comes from the species named
Conditions: Homo sapiens

Row | Variant | abundance fitness
1 | E16D | -0.203 ± 0.27
2 | I29A | -0.833 ± 0.35
3 | I29T | -0.543 ± 0.19
4 | I29K | -0.63 ± 0.26
5 | I29M | 0.038 ± 0.16
6 | E35H | -0.318 ± 0.35
7 | E35D | -0.146 ± 0.33
8 | E35A | -0.226 ± 0.2
9 | E35C | 0.015 ± 0.15
10 | E35Y | -0.395 ± 0.3
11 | E35N | -0.12 ± 0.26
12 | D61M | -0.106 ± 0.24
13 | D61P | 0.04 ± 0.32
14 | D61H | 0.346 ± 0.23
15 | D61E | 0.283 ± 0.26
16 | D61Q | -0.014 ± 0.24
17 | D61Y | -0.376 ± 0.21
18 | D61R | -0.261 ± 0.18
19 | D61T | -0.329 ± 0.26
20 | D61S | -0.692 ± 0.34
21 | D61N | -0.273 ± 0.28
22 | D61K | -0.582 ± 0.35
23 | L21S | -0.719 ± 0.21
24 | L21F | -0.826 ± 0.4

Row | Variant | abundance fitness
25 | L21R | -0.861 ± 0.26
26 | K55Q | 0.064 ± 0.096
27 | K55G | -0.131 ± 0.083
28 | K55E | 0.127 ± 0.075
29 | K55I | -0.077 ± 0.1
30 | K55L | -0.29 ± 0.064
31 | K55N | -0.193 ± 0.27
32 | D25T | -0.495 ± 0.25
33 | D25Q | -0.39 ± 0.34
34 | D25C | -0.649 ± 0.27
35 | D25V | -0.733 ± 0.2
36 | P50K | -0.226 ± 0.12
37 | P50L | -0.665 ± 0.17
38 | P50Q | -0.279 ± 0.17
39 | P50H | 0.078 ± 0.17
40 | Q4E | -0.539 ± 0.45
41 | Q4R | 0.209 ± 0.17
42 | Q4Y | 0.503 ± 0.19
43 | Q4V | 0.118 ± 0.22
44 | Q4W | -0.117 ± 0.25
45 | N52Q | -0.255 ± 0.11
46 | N52C | 0.114 ± 0.13
47 | V54L | -0.753 ± 0.15
48 | V54P | -0.816 ± 0.27

Row | Variant | abundance fitness
49 | V54A | -0.52 ± 0.15
50 | V54F | -0.416 ± 0.33
51 | V54S | -0.94 ± 0.36
52 | N43R | 0.061 ± 0.073
53 | N43T | -0.835 ± 0.21
54 | N43F | -0.137 ± 0.27
55 | N43Y | -0.553 ± 0.34
56 | N43H | -0.014 ± 0.21
57 | N43M | -0.144 ± 0.17
58 | V33T | -0.452 ± 0.24
59 | V33A | -0.132 ± 0.23
60 | V33K | -0.262 ± 0.15
61 | V33H | -0.404 ± 0.34
62 | V33S | -0.186 ± 0.16
63 | V33I | 0.129 ± 0.23
64 | V33Q | -0.55 ± 0.29
65 | C5E | -0.688 ± 0.32
66 | C5D | -0.626 ± 0.14
67 | C5F | -0.367 ± 0.073
68 | C5V | 0.23 ± 0.056
69 | C5W | -0.743 ± 0.24
70 | C5G | 0.235 ± 0.054
71 | C5S | -0.353 ± 0.056
72 | C5N | -0.596 ± 0.083

Row | Variant | abundance fitness
73 | C5L | -0.445 ± 0.072
74 | C5M | -0.419 ± 0.13
75 | E31N | -0.016 ± 0.22
76 | E31L | -0.367 ± 0.12
77 | E31D | 0.002 ± 0.23
78 | E31Q | -0.23 ± 0.15
79 | E31F | -0.584 ± 0.49
80 | E31R | 0.039 ± 0.099
81 | L19G | -0.508 ± 0.21
82 | L19I | -0.063 ± 0.33
83 | L19A | -0.906 ± 0.43
84 | L19K | -0.727 ± 0.43
85 | T41W | 0.016 ± 0.17
86 | T41N | -0.011 ± 0.45
87 | T41M | -0.162 ± 0.12
88 | T41V | 0.078 ± 0.09
89 | T41S | -0.35 ± 0.15
90 | T41A | -0.182 ± 0.1
91 | T41H | -0.158 ± 0.25
92 | T41Q | -0.062 ± 0.13
93 | E32A | -0.38 ± 0.24
94 | E32T | -0.094 ± 0.18
95 | E32K | -0.188 ± 0.2
96 | E32W | -0.374 ± 0.31

Row | Variant | abundance fitness
97 | E32M | 0.178 ± 0.19
98 | L42N | 0.12 ± 0.15
99 | L42S | 0.042 ± 0.1
100 | L42C | -0.174 ± 0.16
101 | L42R | -0.388 ± 0.084
102 | L42T | -0.131 ± 0.13
103 | L42F | -0.616 ± 0.23
104 | L42M | -0.486 ± 0.23
105 | L42E | -0.922 ± 0.34
106 | L42D | -0.241 ± 0.3
107 | L42G | -0.451 ± 0.12
108 | E10D | 0.144 ± 0.14
109 | E10A | -0.333 ± 0.15
110 | E10T | -0.265 ± 0.12
111 | E10R | -0.126 ± 0.066
112 | E10C | -0.266 ± 0.23
113 | E10G | -0.153 ± 0.091
114 | E10N | -0.064 ± 0.16
115 | W38N | -0.605 ± 0.26
116 | W38A | -0.752 ± 0.22
117 | W38G | -0.569 ± 0.16
118 | W38V | -0.46 ± 0.098
119 | W38H | -0.679 ± 0.29
120 | W38Y | 0.109 ± 0.13

Row | Variant | abundance fitness
121 | W38T | -0.618 ± 0.15
122 | W38I | -0.057 ± 0.15
123 | W38P | -0.787 ± 0.31
124 | W38M | -0.223 ± 0.11
125 | F9P | -0.449 ± 0.14
126 | F9A | 0.026 ± 0.11
127 | F9T | 0.222 ± 0.12
128 | F9L | 0.283 ± 0.086
129 | F9I | 0.131 ± 0.3
130 | I12E | -0.122 ± 0.19
131 | I12K | -0.063 ± 0.19
132 | I12P | -0.159 ± 0.37
133 | I12A | -0.03 ± 0.13
134 | I12W | -0.311 ± 0.15
135 | I12Y | 0.065 ± 0.23
136 | I12F | -0.026 ± 0.21
137 | T60S | -0.039 ± 0.1
138 | T60W | -0.198 ± 0.3
139 | T60C | -0.183 ± 0.19
140 | T60K | -0.006 ± 0.39
141 | K1R | -0.181 ± 0.12
142 | K1I | -0.241 ± 0.4
143 | K1N | 0.265 ± 0.29
144 | K1G | -0.122 ± 0.13

Row | Variant | abundance fitness
145 | N30A | -0.305 ± 0.47
146 | N30P | -0.438 ± 0.32
147 | N30S | -0.11 ± 0.1
148 | N30D | -0.123 ± 0.29
149 | N30R | -0.171 ± 0.11
150 | K22E | -0.66 ± 0.38
151 | K22I | -0.308 ± 0.44
152 | K22C | -0.08 ± 0.39
153 | K22G | -0.182 ± 0.27
154 | K22S | -0.273 ± 0.15
155 | Y11M | -0.897 ± 0.45
156 | Y11L | -0.951 ± 0.21
157 | Y11Q | -0.936 ± 0.44
158 | Y11P | -0.481 ± 0.22
159 | Y11T | -0.458 ± 0.34
160 | Y11W | -0.318 ± 0.16
161 | Y11D | -0.446 ± 0.36
162 | Y11H | -0.286 ± 0.34
163 | K45L | -0.638 ± 0.14
164 | K45A | -0.779 ± 0.21
165 | K45C | -0.065 ± 0.17
166 | K45Y | -0.273 ± 0.3
167 | K45V | -0.556 ± 0.16
